The values below come from paper PMC10746525, “Interaction between the mitochondrial adaptor MIRO and the motor adaptor TRAK” (The Journal of Biological Chemistry, 2023).

By Kd is commonly meant the free concentration of one partner at which half of the binding sites on the other are occupied at equilibrium, for simple one-to-one binding. A lower Kd goes with tighter binding. In general, stoichiometry N refers to the number of molecules, sites or subunits per partner or assembly.

To fix the notation:
B1: MBP-TRAK1_(342-431) (domain or fragment, human, UniProt Q9UPV9 342-431, looked up)
chain: EAQEELKNLRNKTMPNTTSRRYHSLGLFPMDSLAAEIEGTMRKELQLEEAESPDITHQKRVFETVRNINQVVKQRSLTPSPMNIPGSNQS
notes: GCN4 of m5 replaced with MBP; Cloned into pMAL-c6T; source: E. coli ArcticExpress(DE3), purified (amylose, Strep-Tactin); not shown: MBP, N-terminal, kept
B2: MBP-TRAK1_(342-431) ^400KR^401 to AA (domain or fragment, human, UniProt Q9UPV9 342-431, looked up)
chain: B1 chain with K59A, R60A
notes: source: E. coli ArcticExpress(DE3), purified (amylose, Strep-Tactin); not shown: MBP, N-terminal, kept
B3: MIRO1_(177-591) (domain or fragment, human, UniProt Q8IXI2 177-591, looked up)
chain: EEKEMKPACIKALTRIFKISDQDNDGTLNDAELNFFQRICFNTPLAPQALEDVKNVVRKHISDGVADSGLTLKGFLFLHTLFIQRGRHETTWTVLRRFGYDDDLDLTPEYLFPLLKIPPDCTTELNHHAYLFLQSTFDKHDLDRDCALSPDELKDLFKVFPYIPWGPDVNNTVCTNERGWITYQGFLSQWTLTTYLDVQRCLEYLGYLGYSILTEQESQASAVTVTRDKKIDLQKKQTQRNVFRCNVIGVKNCGKSGVLQALLGRNLMRQKKIREDHKSYYAINTVYVYGQEKYLLLHDISESEFLTEAEIICDVVCLVYDVSNPKSFEYCARIFKQHFMDSRIPCLIVAAKSDLHEVKQEYSISPTDFCRKHKMPPPQAFTCNTADAPSKDIFVKLTTMAMYPHVTQADLKSST
notes: Cloned into pETDuet-1; As purified it held 37.0% GDP and 63.0% GTP; samples exchanged with GDP or GTP were also used; also called MIRO1 EF-hands and cGTPase; source: E. coli ArcticExpress(DE3), purified (Ni-NTA, SourceQ flowthrough)
B4: MIRO1_(1-591) (domain or fragment, human, UniProt Q8IXI2 1-591, looked up)
chain: MKKDVRILLVGEPRVGKTSLIMSLVSEEFPEEVPPRAEEITIPADVTPERVPTHIVDYSEAEQSDEQLHQEISQANVICIVYAVNNKHSIDKVTSRWIPLINERTDKDSRLPLILVGNKSDLVEYSSMETILPIMNQYTEIETCVECSAKNLKNISELFYYAQKAVLHPTGPLYCPEEKEMKPACIKALTRIFKISDQDNDGTLNDAELNFFQRICFNTPLAPQALEDVKNVVRKHISDGVADSGLTLKGFLFLHTLFIQRGRHETTWTVLRRFGYDDDLDLTPEYLFPLLKIPPDCTTELNHHAYLFLQSTFDKHDLDRDCALSPDELKDLFKVFPYIPWGPDVNNTVCTNERGWITYQGFLSQWTLTTYLDVQRCLEYLGYLGYSILTEQESQASAVTVTRDKKIDLQKKQTQRNVFRCNVIGVKNCGKSGVLQALLGRNLMRQKKIREDHKSYYAINTVYVYGQEKYLLLHDISESEFLTEAEIICDVVCLVYDVSNPKSFEYCARIFKQHFMDSRIPCLIVAAKSDLHEVKQEYSISPTDFCRKHKMPPPQAFTCNTADAPSKDIFVKLTTMAMYPHVTQADLKSST
notes: Cloned into pRSFDuet-1; also called mitochondrial Rho GTPase 1, near full-length construct lacking the C-terminal transmembrane helix; source: E. coli ArcticExpress(DE3), purified (Ni-NTA, Strep-Tactin)
B5: TRAK1_(99-532) (domain or fragment, human, UniProt Q9UPV9 99-532, looked up)
chain: AERVGQMTKTYNDIDAVTRLLEEKERDLELAARIGQSLLKKNKTLTERNELLEEQVEHIREEVSQLRHELSMKDELLQFYTSAAEESEPESVCSTPLKRNESSSSVQNYFHLDSLQKKLKDLEEENVVLRSEASQLKTETITYEEKEQQLVNDCVKELRDANVQIASISEELAKKTEDAARQQEEITHLLSQIVDLQKKAKACAVENEELVQHLGAAKDAQRQLTAELRELEDKYAECMEMLHEAQEELKNLRNKTMPNTTSRRYHSLGLFPMDSLAAEIEGTMRKELQLEEAESPDITHQKRVFETVRNINQVVKQRSLTPSPMNIPGSNQSSAMNSLLSSCVSTPRSSFYGSDIGNVVLDNKTNSIILETEAADLGNDERSKKPGTPGTPGSHDLETALRRLSLRRENYLSERRFFEEEQERKLQELAEKGE
notes: Cloned into pRSFDuet-1; codon-optimised synthetic cDNA; source: E. coli ArcticExpress(DE3), purified (Strep-Tactin, Ni-NTA)
B6: TRAK1_(394-434) (peptide, UniProt Q9UPV9 394-434, looked up)
peptide: PDITHQKRVFETVRNINQVVKQRSLTPSPMNIPGSNQSSAM
notes: Cloned into pMAL-c6T; also called TRAK1 peptide narrowly encompassing CR2; not shown: 6xHis-MBP, N-terminal, cleaved
B7: MBP-MIRO1_(1-180) (domain or fragment, human, UniProt Q8IXI2 1-180, looked up)
chain: MKKDVRILLVGEPRVGKTSLIMSLVSEEFPEEVPPRAEEITIPADVTPERVPTHIVDYSEAEQSDEQLHQEISQANVICIVYAVNNKHSIDKVTSRWIPLINERTDKDSRLPLILVGNKSDLVEYSSMETILPIMNQYTEIETCVECSAKNLKNISELFYYAQKAVLHPTGPLYCPEEKE
notes: human MIRO1, residues 1-180 (nGTPase); Cloned into pMAL-c6T; also called nGTPase of MIRO1 fused to MBP; source: E. coli ArcticExpress(DE3), purified (Strep-Tactin, MonoQ); not shown: MBP, N-terminal, kept

Where a chain is given by its changes, count along the chain named.

Data set [1] concerns the target B3. The experiment in a line: ITC; VP-ITC, 25 °C; ITC buffer (20 mM Hepes pH 7.5, 400 mM NaCl, 1 mM MgCl2, 5% w/v sucrose, 0.1 μM GTP) with 50 μM CaCl2; MIRO1_(177-591) in the syringe, TRAK1 construct in the cell. The note with it: both partners purified. On the technique in general: Isothermal titration calorimetry measures the heat released or taken up as one component is titrated into another.

Data set [2] has as its target B3. In words: ITC; VP-ITC, 25 °C; ITC buffer (20 mM Hepes pH 7.5, 400 mM NaCl, 1 mM MgCl2, 5% w/v sucrose, 0.1 μM GTP) with 5 mM EGTA; the binder of each row in the syringe. The note with it: both partners purified.
A further data set concerns the target T1, MIRO1_(177-591) E208A (human, UniProt Q8IXI2 177-591, E208A).
T1 construct: source: E. coli ArcticExpress(DE3), purified (Ni-NTA, SourceQ flowthrough)
The description is as above. The note with it: both partners purified.

A further data set concerns the target T2, MIRO1_(177-591) E328A (human, UniProt Q8IXI2 177-591, E328A).
T2 construct: source: E. coli ArcticExpress(DE3), purified (Ni-NTA, SourceQ flowthrough)
The description is as above. The note with it: both partners purified.

Data set [3] addresses B1. In words: ITC; VP-ITC, 25 °C; ITC buffer (20 mM Hepes pH 7.5, 400 mM NaCl, 1 mM MgCl2, 5% w/v sucrose, 0.1 μM GTP) with 50 μM CaCl2; MIRO1_(177-591) in the syringe, TRAK1 construct in the cell. The note with it: both partners purified.
The target of data set [4] is B1. The experiment in a line: ITC; VP-ITC, 25 °C; ITC buffer (20 mM Hepes pH 7.5, 400 mM NaCl, 1 mM MgCl2, 5% w/v sucrose, 0.1 μM GTP) with 5 mM EGTA; the binder of each row in the syringe. The note with it: both partners purified.
Data set [5] deals with the molecule itself. In words: mass photometry; Refeyn TwoMP, 125-150 nM protein, 100 mM NaCl, 50 μM MgCl2, 50 μM GTP with 1 mM EGTA or 100 μM CaCl2.
For the data set “MIRO1_(1-591)”, the target named is B4. The experiment in a line: co-sedimentation; 5-30% glycerol gradient, proteins mixed at 4 μM each in 20 mM Hepes pH 7.5, 500 mM NaCl, 1 mM MgCl2, 1 mM CaCl2, 1 mM DTT, 0.1 μM GTP; 165,000g, 16 h, 4 °C; fractions on SDS-PAGE. The note with it: both partners purified.

B1: the Kd amounted to 2.76 µM with MIRO1_(177-591) [1] and 8.77 µM with MIRO1_(177-591) [2]. Moreover, the binding result in the data set with MIRO1_(177-591) E208A and in the data set with MIRO1_(177-591) E328A was “binds” each time.
Turning to B2, the binding result in the data set with MIRO1_(177-591) [2] is “binds”.
As to B3, the “stoichiometry N” value in the data set with MBP-TRAK1_(342-431) [3] worked out at 1.11; with MBP-TRAK1_(342-431) [4], 1.09.
Take B4: in data set [5], the binding result is “binds”.
In the case of B5, the binding result with MIRO1_(1-591) is “binds”.
Consider B6, for which the binding result with MIRO1_(177-591) [2] was “binds”.
Regarding B7, the binding result in data set [5] is reported as “binds”.
